Test results reported in US20210187071A1, “COMPOSITIONS COMPRISING MDA-7/IL-24 PROTEIN AND METHODS OF USE” (VIRGINIA COMMONWEALTH UNIVERSITY, priority 2017, published 2021).
Entries after “also recorded” stand apart in the source; their conditions may differ. Read-outs that look alike come from different tables or passages of the source.

Experiments:
[1] = tested on: PC3-ML cells; settings: for bone metastasis (BLI signal / luciferase intensity): MDA-7/IL-24 protein 5 mg/kg tail vein, 6 doses over three weeks, vs untreated control; for survival: MDA-7/IL-24 protein 5 mg/kg, 6 doses; for toxicity in animals: delivered repeatedly systemically in mice
Experimental: In vivo Metastasis Studies: All animal studies were approved by the Institutional Animal Care and Use Committee (Virginia Commonwealth University). For experimental bone metastasis assays, 6-8-week-old male athymic nude mice (purchased from Harlan, USA) were injected with 1×10^5 PC3-ML cells stably expressing firefly luciferase gene through an intracardiac route. For determining the therapeutic activity of MDA-7/IL-24 protein, mice received an intravenous injection of recombinant protein (5 mg/kg), one day after implantation of cells. Animals were treated with therapeutics for a total of 6 times (2× a week for first 3 weeks). […] Image of the bone region was monitored by a BLI (bioluminescence imaging) method using an IVIS® imaging system (15, 19, 20).
In this model, stable luciferase expressing PC3-ML cells were injected in male athymic nude mice through an intracardiac route to produce bone metastases. The expansion, invasion, and migration of PC3-ML cells were monitored by IVIS® imaging (15, 20, 23). […] BLI imaging followed development of metastatic lesions in bone. […] To determine the effect of MDA-7/IL-24 on primary bone marrow in animals, cells from the bone cavity were isolated and treated with His-MDA-7 at different doses in vitro.

[2] = tested on: bone marrow cells; assay: Osteoclast differentiation of bone marrow cells isolated from treated PC3-ML tumor bearing animals (TRAP staining, TRACP assay); format: in vivo, mice; settings: MDA-7/IL-24 protein 5 mg/kg, 6 doses; differentiation induced ex vivo
Experimental: (§1) Osteoclast Formation Assays: Bone marrow cells were induced for osteoclast differentiation using previously described protocols (28). Briefly, bone marrow cells were cultured in minimal essential medium (α-MEM) with 10% fetal bovine serum with MCSF (10 ng/ml) for 24 hrs. They were subsequently treated with RANKL (100 ng/ml) for 5 days. Cultured cells were fixed and stained for TRAP (Tartarate-resistant acid phosphatase). TRAP staining was performed following the specific protocol provided with the kit (Sigma-Aldrich, Inc. St. Louis, Mo., USA). Multinucleated cells, considered as differentiated osteoclasts, were counted manually under bright field microscope. TRACP enzymatic assays were done as per the manufacturer's instructions (R & D, Minneapolis, Minn., USA).
This was quantified by counting the number of osteoclasts (FIG. 2D) and also measuring TRACP osteoclastic enzymatic activity (FIG. 2E). These initial results indicated a potential function of MDA-7/IL-24 in regulating osteoclast differentiation.
Suppression of osteoclast differentiation was also evaluated using an in vivo metastatic model (FIG. 4C). Bone marrow cells were isolated after sacrifice of mice and osteoclast differentiation was induced. […] This was evident by counting osteoclasts (FIG. 4C) and also by measuring TRACP osteoclastic enzymatic activity (FIG. 4D).

[3] = tested on: bone marrow cells; assay: In vitro RANKL-induced osteoclast differentiation of primary bone marrow cells; format: cell-based, athymic nude mice; settings: RANKL induction 5 days, 10 μg/mL MDA-7/IL-24 protein
Experimental: as §1
To investigate the effect of MDA-7/IL-24 on osteoclast differentiation, bone marrow cells from athymic nude mice were isolated and induced to differentiate with RANKL in the presence or absence of MDA-7/IL-24 protein. Five days after induction with RANKL, osteoclast differentiation was measured by counting multinucleated cells. Cells positively stained for TRAP and multinucleated cells were quantified under a light microscope (FIG. 9A). […] To provide molecular insights into this inhibitory effect, we used a mouse macrophage cell line RAW 264.7, which can be induced to differentiate into osteoclasts when incubated with RANKL (32). Using RAW 264.7 cells, different genetic markers associated with osteoclastic differentiation were monitored (33). RAW 264.7 cells were treated with RANKL or MDA-7/IL-24 alone and in combination. RNA was isolated after 5 days of treatment and real time PCR quantified expression of TRAP, Cathepsin K (CTSK), and Calcitonin Receptor (CTR) genes. RANKL induced the expression of TRAP, CTSK and CTR gene expression. […] MTT assays were performed to determine if MDA-7/IL-24 caused any growth suppression in this cell line. Proliferation of RAW 264.7 was not affected by MDA-7/IL-24, further illustrating the tumor-specificity of this cytokine (FIG. 10B). DU-145 (PC) cells were used as a positive control (FIG. 10C).

[4] = tested on: TRAP, Cathepsin K (CTSK), and Calcitonin Receptor (CTR) genes; assay: RQ-PCR of osteoclastic genes in RAW 264.7 cells; format: cell-based, mouse; settings: 5 days, MDA-7/IL-24 protein 10 μg/mL, RANKL 100 ng/mL
Experimental: Real Time q-PCR: Total RNA was isolated from cells with the RNA isolation kit from Qiagen (Valencia, Calif., USA). RQ-PCR was performed using TaqMan probes and master mix from Applied Biosystems (Foster City, Calif., USA). Data were analyzed using the graph pad prism software.
To investigate the effect of MDA-7/IL-24 on osteoclast differentiation, bone marrow cells from athymic nude mice were isolated and induced to differentiate with RANKL in the presence or absence of MDA-7/IL-24 protein. Five days after induction with RANKL, osteoclast differentiation was measured by counting multinucleated cells. Cells positively stained for TRAP and multinucleated cells were quantified under a light microscope (FIG. 9A). […] To provide molecular insights into this inhibitory effect, we used a mouse macrophage cell line RAW 264.7, which can be induced to differentiate into osteoclasts when incubated with RANKL (32). Using RAW 264.7 cells, different genetic markers associated with osteoclastic differentiation were monitored (33). RAW 264.7 cells were treated with RANKL or MDA-7/IL-24 alone and in combination. RNA was isolated after 5 days of treatment and real time PCR quantified expression of TRAP, Cathepsin K (CTSK), and Calcitonin Receptor (CTR) genes. RANKL induced the expression of TRAP, CTSK and CTR gene expression. […]

[5] = tested on: PC3-ML^Akt; assay: Experimental bone metastasis model with PC3-ML cells over expressing constitutively active Akt; format: in vivo, male athymic nude mice; settings: MDA-7/IL-24 protein 5 mg/kg tail vein, 6 doses over three weeks
Experimental: To evaluate the role of Akt in vivo, metastatic PC3-ML cells and PC3-ML cells over expressing constitutively active Akt (PC3-MI/**) (FIG. 5A) carrying firefly luciferase were injected into male athymic nude mice through the intracardiac route. Clone 1 was used for the in vivo studies, which was validated for expression of Akt downstream pathway gene expression by western blotting (FIG. 14). Proliferation, invasion, and migration of the tumor cells were monitored by IVIS® imaging. […] The Akt overexpressing PC3-ML cells were more metastatic than the control PC3-ML cells. […] These observations illustrate the significance of Akt in PC-mediated bone metastasis development, which can be partially abrogated by MDA-7/IL-24-treatment (FIG. 5B). […] To investigate osteoclastic differentiation in these animals, bone marrow cells were isolated after completion of the study. Osteoclast differentiation was induced as described above. […] Osteoclast differentiation assays further illustrated the importance of Akt in PC-mediated bone metastasis (FIGS. 5D and 5E). A schematic representation of the proposed role of MDA-7/IL-24 protein in PC-mediated bone metastasis through modulation of the bone microenvironment is presented in FIG. 6. […]

[6] = tested on: bone marrow cells; assay: Osteoclast differentiation of bone marrow from animals injected with elevated Akt-stable expression cells; format: in vivo, mice; settings: MDA-7/IL-24 protein 5 mg/kg, 6 doses; differentiation induced ex vivo
Experimental: as §1
To evaluate the role of Akt in vivo, metastatic PC3-ML cells and PC3-ML cells over expressing constitutively active Akt (PC3-MI/**) (FIG. 5A) carrying firefly luciferase were injected into male athymic nude mice through the intracardiac route. Clone 1 was used for the in vivo studies, which was validated for expression of Akt downstream pathway gene expression by western blotting (FIG. 14). Proliferation, invasion, and migration of the tumor cells were monitored by IVIS® imaging. […] The Akt overexpressing PC3-ML cells were more metastatic than the control PC3-ML cells. […]

[7] = listed as recombinant MDA-7/IL-24

B1: MDA-7/IL-24 protein: Recombinant His-tagged MDA-7/IL-24 protein purified on Ni-NTA from supernatant of IM-PHFA cells infected with Ad.5-His-mda-7 (protein)
chain: QEFHFGPCQVKGVVPQKLWEAFWAVKDTMQAQDNITSARLLQQEVLQNVSDAESCYLVHTLLEFYLKTVFKNYHNRTVEVRTLKSFSTLANNFVLIVSQLQPSQENEMFSIRDSAHRRFLLFRRAFKQLDVEAALTKALGEVDILLTWMQKFYKL
With B1 the “bone metastasis (BLI signal / luciferase intensity)” value [1] was “significantly fewer metastatic lesions”, the “bone metastasis (BLI signal / luciferase intensity)” value ([1]; listed as MDA-7/IL-24) was “significantly less evidence of metastasis; also recorded: a significant decrease in metastasis; also recorded: significant inhibition in luciferase intensity” and the “bone metastasis (BLI signal / luciferase intensity)” value [1, 7] was “significantly less metastatic lesions in their femurs; also recorded: significantly reduced the occurrence of bone metastasis”. For the same molecule, the survival [1] was “enhancement of survival”, the survival ([1]; listed as MDA-7/IL-24) was “increased” and the toxicity in animals [1] was “non-toxic”. For the same molecule, the toxicity in animals [1, 7] was “without promoting toxicity”, the “development of lung metastases” value ([1]; six doses of MDA-7/IL-24 protein 5 mg/kg) was “suppressed development of lung metastases” and the “number of osteoclasts from bone marrow of treated animals” value [2] was “significantly fewer osteoclasts”. The “osteoclastic activity of bone marrow from treated animals” value [2] was “less osteoclastic activity”, the “number of osteoclasts (osteoclast differentiation)” value ([3]; listed as His-MDA-7) was “decreased significantly” and the “osteoclast activity (TRACP enzymatic activity)” value ([3]; listed as His-MDA-7) was “significantly less”. For the same molecule, the “number of osteoclasts (osteoclast differentiation)” value ([3]; listed as MDA-7/IL-24) was “significantly reduced; also recorded: reduced osteoclast differentiation”, the “osteoclast activity (TRACP enzymatic activity)” value ([3]; listed as MDA-7/IL-24) was “significantly reduced” and the “RANKL-induced TRAP, CTSK and CTR gene expression” value [4] was “attenuated RANKL-induced regulation of these genes”. For the same molecule, the “bone metastasis by PC3-ML^Akt cells” value [5] was “diminished the inhibitory effects”, the “bone metastasis by PC3-ML^Akt cells” value ([5]; listed as MDA-7/IL-24) was “inhibited metastasis” and the “osteoclastic activity of bone marrow from animals with Akt overexpressing cells” value [6] was “decreased”.
